Where a chain is given by its changes, count along the chain named.
T1: Tie1-EpoR chimeric receptor (UniProt P14753+P35590)
T1 construct: PCR amplified extracellular part of human Tie1 (bp 37-2316 of X60975); expressed in transfected cells
T1 sequence (P35590+P14753 with tags, fused parts or gaps): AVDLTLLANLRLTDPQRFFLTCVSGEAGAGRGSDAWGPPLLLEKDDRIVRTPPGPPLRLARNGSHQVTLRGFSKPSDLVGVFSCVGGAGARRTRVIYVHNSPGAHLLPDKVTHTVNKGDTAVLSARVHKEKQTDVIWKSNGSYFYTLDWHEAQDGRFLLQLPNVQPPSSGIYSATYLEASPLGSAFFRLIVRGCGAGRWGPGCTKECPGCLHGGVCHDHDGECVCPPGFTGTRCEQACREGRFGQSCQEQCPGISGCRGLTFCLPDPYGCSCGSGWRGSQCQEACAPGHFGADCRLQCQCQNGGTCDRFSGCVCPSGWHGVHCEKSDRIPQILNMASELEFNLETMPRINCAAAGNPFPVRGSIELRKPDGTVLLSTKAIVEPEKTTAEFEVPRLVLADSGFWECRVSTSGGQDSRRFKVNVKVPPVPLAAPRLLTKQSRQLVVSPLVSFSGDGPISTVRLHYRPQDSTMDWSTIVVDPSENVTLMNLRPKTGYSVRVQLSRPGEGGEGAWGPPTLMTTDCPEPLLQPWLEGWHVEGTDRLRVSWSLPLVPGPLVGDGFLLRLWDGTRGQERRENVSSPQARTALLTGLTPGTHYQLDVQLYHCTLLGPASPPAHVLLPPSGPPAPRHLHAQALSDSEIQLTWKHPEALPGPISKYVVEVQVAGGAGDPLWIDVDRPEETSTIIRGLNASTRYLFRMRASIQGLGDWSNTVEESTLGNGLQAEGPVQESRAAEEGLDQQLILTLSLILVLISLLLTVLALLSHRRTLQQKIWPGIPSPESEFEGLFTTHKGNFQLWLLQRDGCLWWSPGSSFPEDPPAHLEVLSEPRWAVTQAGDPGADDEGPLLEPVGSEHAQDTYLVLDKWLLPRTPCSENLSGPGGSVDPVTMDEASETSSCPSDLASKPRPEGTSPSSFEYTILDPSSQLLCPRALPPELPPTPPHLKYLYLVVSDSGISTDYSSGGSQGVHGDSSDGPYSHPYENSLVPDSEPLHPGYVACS

B1: P-B1: anti-Tie1 antibody clone; variable domains in FIGS. 11A and 11B (antibody, V domains shown)
VH: EVQLLESGGGLVQPGGSLRLSCAASGFTFSRYPMVWVRQAPGKGLEWVSVISPSGGQTFYADSVKGRFTISRDNSKNTLYLQMNSLRAEDTAVYYCARGVLTTAFDIWGQGTMVTVSSASTKGPSVFPLAPSSK
VL: QDIQMTQSPSSLSASVGDRVTITCRASQNINSYLNWYQQKPGQAPKLLIYAASNLETAVPSRFSGSGSGTDFTLTISSLQPEDFATYYCQQFNTYPLTFGGG
B2: A10: anti-Tie1 antibody clone; variable domains in FIGS. 21A and 21B (antibody, V domains shown)
VH: EVQLLESGGGLVQPGGSLRLSCAASGFTFSNYVMVWVRQAPGKGLEWVSGIYPSGGHTKYADSVKGRFTISRDNSKNTLYLQMNSLRAEDTAVYYCARVNYYDSSGYGPIAPGLDYWGQGTLV
VL: HSAQDIQMTQSPGTLSLSPGERATLFCRASQRVTSNSLAWYQQRPGQAPRLLIYDASTRATGIPDRFSGSGSGRDFTLTISRLEPEDFAVYYCQRYGSSVLYSFGQGTKLEIT
B3: A2: anti-Tie1 antibody clone; variable domains in FIGS. 20A and 20B (antibody, V domains shown)
VH: EVQLLESGGGLVQPGGSLRLSCAASGFTFSRYTMMWVRQAPGKGLEWVSGIYPSGGVTLYADSVKGRFTISRDNSKNTLYLQMNSLRAEDTAVYYCARVNYYDSSGYGPIAPGLDYWGQGTLVTVSSASTKGPSVFP
VL: HSAQDIQMTQSPGTLSLSPGERATLSCRASRSVIISYVAWYQQKPGQAPRLLIYGASTRATGIPDRFSGSGSGTDFTLTISRLEPEDFAVYFCQLYGRSPRIIFGQGTRLEIK
B4: P-B3: anti-Tie1 antibody clone; variable domains in FIGS. 12A and 12B (antibody, V domains shown)
VH: EVQLLESGGGLVQPGGSLRLSCAASGFTFSRYGMHWVRQAPGKGLEWVSVISPSGGMTYYADSVKGRFTISRDNTKNTLYLQMNSLRAEDTAVYYCARVGATGPFDIWGQGTMVTVSSASTKGPSVFPLAP
VL: QDIQMTQSPATLSLSPGERATLSCRASQSVSTYLAWYQQKPGQAPRLLIYDASNRATGIPGRFSGSGSGTDFTLTISSLEAEDFAVYYCQQRSSWPITFGQG
B5: P-C6: anti-Tie1 antibody clone; variable domains in FIGS. 13A and 13B (antibody, V domains shown)
VH: EVQLLESGGGLVQPGGSLRLSCAASGFTFSHYGMTWVRQAPGKGLEWVSVISPSGGQTGYADSVKGRFTISRDNSKNTLYLQMNSLRAEDTAVYYCAGGGYAAFDYWGQGTLVTVSSASTKGPSVFPLAPSSKSTSGGTAALG
VL: B4 VL with T32S, G61A, A81P, S94N, I97L, Q101G
B6: C7: anti-Tie1 antibody clone; variable domains in FIGS. 25A and 25B (antibody, V domains shown)
VH: EVQLLESGGGLVQPGGSLRLSCAASGFTFSRYVMYWVRQAPGKGLEWVSVIYPSGGATYYADSVKGRFTISRDNSKNTLYLQMNSLRAEDTAVYYCARRGSSGAFDYWGQGTLVTVSSASTKGPSVFP
VL: HSAQSVLTQPASVSGSPGQSITISCTGTSSDIGRYNYASWYQQRPGKSPKLLIYEVSDRPSGVSNRFSGSKSGNTASLIISGLQAEDEADYYCSSYSSTNSLQVVFGGGTKLSVLGQPKAAPSVTLFPPSSEELQANKATLVCL
B7: M0044B08: Tie1-binding antibody; LC SEQ ID NO:180, HC SEQ ID NO:182 (antibody, V domains shown)
VH: EVQLLESGGGLVQPGGSLRLSCAASGFTFSAYGMGWVRQAPGKGLEWVSVISPSGGQTSYADSVKGRFTISRDNSKNTLYLQMNSLRAEDTALYYCAGGDRYGPLHYWGQGTLVTVSS
VL: QDIQMTQSPSFLSASVGDRVTISCRASQYISIYLNWYQQRPGEAPKLLINAASSLQSGDPSRFSGSGSGTDFTLTINSLQPDDFATYYCQQYKSYPLTFGEGTKVEIK
modifications: Antibody
B8: M0045B03: Tie1-binding antibody; LC SEQ ID NO:260, HC SEQ ID NO:262 (antibody, V domains shown)
VH: EVQLLESGGGLVQPGGSLRLSCAASGFTFSQYPMIWVRQAPGKGLEWVSVISPSGGHTSYADSVKGRFTISRDNSKNTLYLQMNSLRAEDTAVYYCARIQYYGGAFDIWGQGKMVTVSS
VL: QDIQMTQSPDTLSLSPGERATLSCRASQSISRYLAWYQQRPGQAPSLLIYDASERAAGIPARFSGSGSGTDFTLTISSLEPEDFAVYYCQQRGNWPLTFGGGTKVDIR
modifications: Antibody
B9: M0053F04: Tie1-binding antibody; LC SEQ ID NO:392, HC SEQ ID NO:394 (antibody, V domains shown)
VH: EVQLLESGGGLVQPGGSLRLSCAASGFTFSGYGMYWVRQAPGKGLEWVSVISPSGGYTHYADSVKGRFTISRDNSKNTLYLQMNSLRAEDTAVYYCARAYSSGWYLDYWGQGTLVTVSS
VL: QDIQMTQSPATLSLSPGERATLSCRASQSVSSYLAWYQQKPGQAPRLLIYDTSNRATGIPARFSGSGSGTDFTLTISSLEPEDFAVYYCQQRSNWPITFGQGTRLEIK
modifications: Antibody
B10: M0056G08: Tie1-binding antibody; LC SEQ ID NO:568, HC SEQ ID NO:570 (antibody, V domains shown)
VH: EVQLLESGGGLVQPGGSLRLSCAASGFTFSHYGMWWVRQAPGKGLEWVSVISPSGGQTNYADSVKGRFTISRDNSKNTLYLQMNSLRAEDTAVYYCAKGQIHGGNLASWGQGTLVTVSS
VL: QDIQMTQSPGTLSLSPGERATLSCRASQSISSSYLAWYQQKPGQAPRLLLYGTSNRATGIPDRFSGSGSGTDFTLTISRLEPEDFALYYCQQRYKWPLTFGPGTKVDFK
modifications: Antibody

target: T1, Tie1-EpoR chimeric receptor; experiment: BaF3 bioassay (Tie1/EpoR chimeric BaF3 cell assay); format: cell-based, human; conditions: 100 ng/ml E3 IgG together with 100 (1:1) or 500 (1:5) ng/ml test antibody
Source text: BaF3 bioassay. To generate Tie1-EpoR expressing BaF3 cells for the bioassay, BaF3 pre-B cells were stably transfected with a nucleic acid that expresses chimeric receptor containing the extracellular domain of human Tie1 fused with the transmembrane and cytoplasmic domains of the mouse erythropoietin receptor. The nucleic acid used was a Tie1-EpoR chimeric cDNA in a pEF-BOS expression vector. The nucleic acid encoding the chimeric receptor was constructed by cloning the PCR amplified extracellular part of human Tie1 (bp 37-2316 of X60975) as EcoRI-BglII fragment into mEpoR-pcDNA vector. The cDNA encoding for the chimeric receptor consisting of the extracellular part of Tie1 fused with the transmembrane and intracellular domains of EpoR was subcloned into the pEF-BOS expression vector. Vector was linearized and co-transfected into BaF3 cells with pcDNA3.1(+) Zeo vector (Invitrogen). Stable cell pools were generated by selection with 250 μg/ml Zeocin. The expression of Tie1/EpoR fusion protein in several clones was analyzed by Western blotting with an antibody against EpoR.
To perform the assays, BaF3 cells expressing the Tie1-EpoR chimera were split in 96-well microtiter plates at 50 000 cells/well in the presence of the indicated concentrations of anti-Tie1 antibodies. The E3 antibody used in this study was the germ-lined E3 antibody (DX-2220). As controls, Zeocin resistant pools not expressing the Tie1-EpoR were used. After 48 h, the viability of the cells was determined by adding MTT (3-(4,5-dimethylthiazol-2-yl)-2,5-diphenyl tetrazolium bromide (Sigma), 0.5 mg/ml), followed by further 2 h of culture, addition of an equal volume of cell lysis solution (10% SDS, 10 mM HCl) and incubation overnight at 37° C. Absorbance was measured at 540 nm.
Stimulation and inhibition of Tie1 in Tie1-EpoR transfected BaF3 cells and human primary endothelial cells. Although no ligand for Tie1 has been identified, we used the following efficient screening method for Tie1-binding proteins. Interleukin-3 dependent pre-B-lymphocyte (BaF3) cells were transfected with a construct that expresses a Tie1-EpoR fusion protein. Since BaF3 cells are IL-3 dependent, they die unless IL-3 is provided. However, Tie-EpoR receptor expressing BaF3 cells can survive and proliferate if the medium contains a Tie1-binding protein, either a natural ligand or an artificial mimetic. Cell survival can be quantitated, e.g., by colorimetric MTT-assay, which measures mitochondrial activity.
To determine if any of the other monoclonal antibodies tested inhibit the survival effect of E3 IgG in Tie1-EpoR BaF3 assay, antibodies were studied in combination with E3 IgG. A concentration of 100 ng/ml of E3 IgG together with 100 (1:1) or 500 (1:5) ng/ml of the other antibodies were used and the viability of Tie1-EpoR cells was measured.

| Molecule | effect on the survival effect of E3 IgG in Tie1-EpoR BaF3 assay |
| --- | --- |
| B1 | inhibited the viability effect of E3 IgG to some extent |
| B2 | inhibited the viability effect of E3 IgG to some extent |
| B3 | inhibited the viability effect of E3 IgG to some extent |
| B4 | inhibited the viability effect of E3 IgG to some extent |
| B5 | inhibited the viability effect of E3 IgG to some extent |
| B6 | promoted the survival of Tie1/EpoR BaF3 cells in combination with E3 IgG |

target: Tie1 (Homo sapiens, UniProt P35590); experiment: Competition with E3 for binding to Tie1; conditions: not given
Sequence (P35590 22-1138): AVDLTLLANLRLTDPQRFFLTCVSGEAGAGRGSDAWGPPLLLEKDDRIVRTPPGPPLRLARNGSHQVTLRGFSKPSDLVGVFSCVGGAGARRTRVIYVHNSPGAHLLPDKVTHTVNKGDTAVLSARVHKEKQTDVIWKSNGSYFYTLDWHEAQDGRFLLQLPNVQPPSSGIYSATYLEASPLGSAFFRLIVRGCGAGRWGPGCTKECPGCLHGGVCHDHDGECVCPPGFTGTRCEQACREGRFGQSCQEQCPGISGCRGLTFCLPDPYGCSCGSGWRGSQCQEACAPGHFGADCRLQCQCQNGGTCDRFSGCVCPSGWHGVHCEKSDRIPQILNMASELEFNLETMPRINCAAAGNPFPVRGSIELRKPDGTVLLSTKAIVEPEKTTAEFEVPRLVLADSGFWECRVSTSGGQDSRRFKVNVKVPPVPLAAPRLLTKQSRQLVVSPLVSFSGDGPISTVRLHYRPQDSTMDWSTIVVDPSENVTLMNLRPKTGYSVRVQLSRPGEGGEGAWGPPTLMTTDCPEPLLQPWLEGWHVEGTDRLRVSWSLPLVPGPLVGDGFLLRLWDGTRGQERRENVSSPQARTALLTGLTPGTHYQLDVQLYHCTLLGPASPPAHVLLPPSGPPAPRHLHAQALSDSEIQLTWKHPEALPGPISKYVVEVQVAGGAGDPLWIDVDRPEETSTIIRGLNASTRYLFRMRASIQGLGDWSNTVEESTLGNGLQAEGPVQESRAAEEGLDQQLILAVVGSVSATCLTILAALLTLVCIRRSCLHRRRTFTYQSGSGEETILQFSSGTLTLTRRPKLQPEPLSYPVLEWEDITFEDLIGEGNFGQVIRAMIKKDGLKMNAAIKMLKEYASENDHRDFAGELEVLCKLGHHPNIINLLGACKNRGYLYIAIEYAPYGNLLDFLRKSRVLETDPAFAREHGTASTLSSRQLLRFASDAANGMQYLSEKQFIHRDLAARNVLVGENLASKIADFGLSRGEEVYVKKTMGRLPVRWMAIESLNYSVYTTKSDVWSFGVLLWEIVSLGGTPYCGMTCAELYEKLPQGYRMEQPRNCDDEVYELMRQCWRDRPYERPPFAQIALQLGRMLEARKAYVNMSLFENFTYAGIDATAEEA

| Molecule | competition with E3 for binding to Tie1 |
| --- | --- |
| B7 | competes with E3 for binding to Tie1 |
| B8 | competes with E3 for binding to Tie1 |
| B9 | competes with E3 for binding to Tie1 |
| B10 | competes with E3 for binding to Tie1 |

Source: patent publication US20100196361A1, “Method of inhibition of vascular development using an antibody” (DYAX CORP., priority 2003, published 2010)
